Experimental findings from patent publication US20050208585A1 (published 2005) are described below.

The target of experiment [1] is mpl-Rse.gD chimeric receptor (human, UniProt P40238 26-491). Kind of experiment: cell-based or functional assay.
For experiment [2], the target named is T1, human c-mpl (thrombopoietin receptor) on HU-03 cells and human platelets (human, UniProt P40238 26-635).
T1 construct: whole, on cells; also called mpl receptor; TPO receptor
T1 sequence (looked up): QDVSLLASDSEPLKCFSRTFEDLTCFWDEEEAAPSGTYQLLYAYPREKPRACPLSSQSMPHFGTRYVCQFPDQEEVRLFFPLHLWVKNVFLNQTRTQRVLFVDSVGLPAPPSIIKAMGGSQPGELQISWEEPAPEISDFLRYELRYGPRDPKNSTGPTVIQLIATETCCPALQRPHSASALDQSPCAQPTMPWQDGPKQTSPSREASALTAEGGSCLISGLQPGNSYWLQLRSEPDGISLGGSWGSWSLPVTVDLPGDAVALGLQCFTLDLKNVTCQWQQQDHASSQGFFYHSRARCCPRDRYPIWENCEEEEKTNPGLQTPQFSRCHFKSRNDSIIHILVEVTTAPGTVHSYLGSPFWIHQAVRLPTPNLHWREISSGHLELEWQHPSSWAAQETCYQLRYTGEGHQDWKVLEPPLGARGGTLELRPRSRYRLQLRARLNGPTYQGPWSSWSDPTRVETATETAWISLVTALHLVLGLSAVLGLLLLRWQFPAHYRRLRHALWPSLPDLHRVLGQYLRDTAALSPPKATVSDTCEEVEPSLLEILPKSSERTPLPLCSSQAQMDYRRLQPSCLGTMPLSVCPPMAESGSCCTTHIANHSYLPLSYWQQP
Kind of experiment: competition with 100 pM 125I-TPO for binding to HU-03 cells.

The target in experiment [3] is T2, mpl-Ig (UniProt P40238 26-491).
T2 construct: From conditioned media of mpl-Ig-transfected 293 cells, captured on rabbit anti-human IgG Fc; also called mpl-IgG; not shown: Ig part, captured by anti-human IgG Fc
T2 sequence (looked up): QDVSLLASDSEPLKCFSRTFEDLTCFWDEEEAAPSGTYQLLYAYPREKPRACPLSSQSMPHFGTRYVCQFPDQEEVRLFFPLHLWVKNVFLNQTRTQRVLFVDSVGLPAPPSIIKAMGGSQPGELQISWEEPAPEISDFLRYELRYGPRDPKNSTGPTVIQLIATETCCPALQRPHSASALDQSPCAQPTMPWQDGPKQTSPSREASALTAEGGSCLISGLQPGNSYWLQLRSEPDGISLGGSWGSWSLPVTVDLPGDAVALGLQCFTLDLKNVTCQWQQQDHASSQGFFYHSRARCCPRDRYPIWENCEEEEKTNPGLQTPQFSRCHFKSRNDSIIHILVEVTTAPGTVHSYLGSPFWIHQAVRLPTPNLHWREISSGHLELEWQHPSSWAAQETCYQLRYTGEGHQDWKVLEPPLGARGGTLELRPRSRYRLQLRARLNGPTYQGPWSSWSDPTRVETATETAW
The experiment in a line: TPO receptor-binding inhibition ELISA: biotinylated TPO on captured mpl-Ig. For orientation: In an ELISA, binding on a coated surface is turned into a signal by an enzyme label.

In experiment [4] the target is T1, human c-mpl (thrombopoietin receptor) …. Kind of experiment: competition with 100 pM 125I-TPO for binding to human platelets.
Experiment [5] shares this target. Kind of experiment: cell-based or functional assay.
Experiment [6] concerns the target human c-mpl (thrombopoietin receptor) on HU-03 cells and human platelets (human) (UniProt P40238). The experiment in a line: cell-based or functional assay.
For experiment [7] the target is unchanged. The experiment in a line: competition with 100 pM 125I-TPO for binding to HU-03 cells.

B1: 12D5 Fab (Fab, V domains shown)
VH: QVQLVESGGGLVKPGGSLRLSCAASGFTFSSHNMNWVRQAPGKGLEWVSSISSSSSYIYYADSVKGRFTISRDNAKNSLYLQMNSLRAEDTAVYYCARDRGSTGMDVWGRGTLVTVSS
VL: DIVMTQSPSTLSASIGDRVTITCRASEGIYHWLAWYQQKPGKAPKLLIYKASSLASGAPSRFSGSGSGTDFTLTISSLQPDDFATYYCQQYSNYPLTFGGGTELEIKR
For the molecule B1, the “KIRA (ED50)” value in experiment [1] stood at 4 nM. In addition, the IC50 in experiment [2] came out at 500 nM; in experiment [3], 1000 nM.

B2: 12D5 IgG (antibody, V domains shown)
VH: QVQLVESGGGLVKPGGSLRLSCAASGFTFSSHNMNWVRQAPGKGLEWVSSISSSSSYIYYADSVKGRFTISRDNAKNSLYLQMNSLRAEDTAVYYCARDRGSTGMDVWGRGTLVTVSS
VL: DIVMTQSPSTLSASIGDRVTITCRASEGIYHWLAWYQQKPGKAPKLLIYKASSLASGAPSRFSGSGSGTDFTLTISSLQPDDFATYYCQQYSNYPLTFGGGTELEIKR
Regarding B2, in experiment [1], the “KIRA (ED50)” value came to 3 nM. The IC50 in experiment [2] was 10 nM; in experiment [4], 500 nM; in experiment [3], 0.45 nM.

B3: 12B5 IgG (antibody, V domains shown)
VH: QVQLVQSGGGLVRPGGSLSLSCAVSGITLRTYGMHWVRQAPGKGLEWVAGISFDGRSEYYADSVQGRFTISRDSSKNTLYLQMNSLRAEDTAVYYCARGAHYGFDIWGQGTMVTVSS
VL: DIVMTQSPSTLSASIGDRVTITCRASEGIYHWLAWYQQKPGKAPKLLIYKASSLASGAPSRFSGSGSGTDFTLTISSLQPDDFATYYCQQYSNYPLTFGGGTELEIKR
For B3, the “Hu3 Proliferation (ED50)” value in experiment [5] is 30 pM. Besides, the IC50 in experiment [2] was found to be 10 nM; in experiment [4], 300 nM; in experiment [3], 0.152 nM.

B4: 12B5 Fab (Fab, from another filing)
scFv: MAQVQLVQSGGGLVRPGGSLSLSCAVSGITLRTYGMHWVRQAPGKGLEWVAGISFDGRSEYYADSVQGRFTISRDSSKNTLYLQMNSLRAEDTAVYYCARGAHYGFDIWGQGTMVTVSSGGGGTGGGGSGGGGSDIQMTQSPSTLSASIGDRVTITCRASEGIYHWLAWYQQKPGKAPKLLIYKASSLASGAPSRFSGSGSGTDFTLTISSLQPDDFATYYCQQYSNYPLTFGGGTELEIKRAA
For the molecule B4, in experiment [6], the Hu3 Proliferation (ED50) is over 1 µM. Besides, the KIRA (ED50) in experiment [1] was 3 nM. For the same molecule, the IC50 in experiment [7] came out at 900 nM.

B5: 12B5 scFv (scFv)
chain: MAQVQLVQSGGGLVRPGGSLSLSCAVSGITLRTYGMHWVRQAPGKGLEWVAGISFDGRSEYYADSVQGRFTISRDSSKNTLYLQMNSLRAEDTAVYYCARGAHYGFDIWGQGTMVTVSSGGGGTGGGGSGGGGSDIQMTQSPSTLSASIGDRVTITCRASEGIYHWLAWYQQKPGKAPKLLIYKASSLASGAPSRFSGSGSGTDFTLTISSLQPDDFATYYCQQYSNYPLTFGGGTELEIKRAA
B5: in experiment [1], the “KIRA (ED50)” value is 1 nM. In addition, the “Hu3 Proliferation (ED50)” value in experiment [5] turned out to be 20 pM. The IC50 in experiment [2] was found to be 10 nM; in experiment [4] it was 100 nM; in experiment [3], 17 nM.

B6: 12E10 scFv (scFv)
chain: MAQVQLQQSGPGLVKPSETLSLTCTVSGDSISSYYWSWIRQPPGKGLEWIGYIYYSGSTNYNPSLKSRVTISVDTSKSQFSLKLSSVTAADTAVYYCARGRYFDVWGRGTMVTVSSGGGGSGGGGSGGGGSSYVLTQPPSVSGSPGQSITISCTGTSSDVGGYNYVSWYQQHPGKAPKLMIYEGSKRPSGVSNRFSGSKSGNTASLTISGLQAEDEADYYCSSYTTRSTRVFGGGTKLTVLGAA
With B6, the “Hu3 Proliferation (ED50)” value in experiment [5] is 5 pM. The IC50 in experiment [2] is 5 nM; in experiment [4], 5 nM; in experiment [3], 1.6 nM.

For orientation: IC50 means the concentration needed to halve the response being measured. Low readings indicate greater potency in that assay, high ones weaker potency in that assay.
